Assay results reported in patent US20190276534A1 (Eli Lilly, published 2019).

Key:
[1] = molecular target: T1, cell surface human Tim-3 on Tim-3 DO11.10 cells (human, UniProt Q8TDQ0 22-301); experiment: flow cytometry, A488-labelled antibody on Tim-3 DO11.10 cells
T1 construct: whole, on cells; Also used as the target for the mixed lymphocyte reaction rows, where Tim-3 is on primary human cells; also called Tim-3 D011.10 cells
T1 sequence (looked up): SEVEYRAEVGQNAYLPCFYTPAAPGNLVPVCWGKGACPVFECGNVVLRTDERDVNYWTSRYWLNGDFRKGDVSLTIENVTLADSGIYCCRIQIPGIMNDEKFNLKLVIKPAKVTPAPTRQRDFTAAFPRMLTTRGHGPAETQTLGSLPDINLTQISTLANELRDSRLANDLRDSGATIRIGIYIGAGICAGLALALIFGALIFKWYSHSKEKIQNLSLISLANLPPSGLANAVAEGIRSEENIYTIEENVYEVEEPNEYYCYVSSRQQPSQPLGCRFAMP

[2] = molecular target: T2, human Tim-3-IgV-Fc single arm antigen (SAG) (human); experiment: SPR Biacore T100, antibody captured on Human Fab Binder, Tim-3 SAG as analyte, 1:1 Langmuir with mass transport
T2 construct: Construct is only named; its build is not described; also called Tim-3 SAG; not shown: Fc part; second Fc arm of the single arm antigen; not described
T2 sequence (Q8TDQ0 whole entry, looked up): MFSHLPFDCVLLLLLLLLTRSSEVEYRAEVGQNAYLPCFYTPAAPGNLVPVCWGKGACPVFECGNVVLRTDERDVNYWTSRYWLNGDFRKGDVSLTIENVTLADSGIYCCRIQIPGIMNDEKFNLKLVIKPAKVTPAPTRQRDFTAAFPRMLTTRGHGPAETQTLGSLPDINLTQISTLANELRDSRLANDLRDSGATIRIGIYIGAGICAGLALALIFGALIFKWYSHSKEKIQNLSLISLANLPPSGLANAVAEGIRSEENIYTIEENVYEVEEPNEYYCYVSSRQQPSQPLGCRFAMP

[3] = molecular target: T3, human Tim-3-Fc (R&D Systems) (human, UniProt Q8TDQ0 22-130, biotinylated in the phosphatidylserine assay; ruthenylated (sulfo-tag NHS-ester) in the galectin-9 assay); experiment: MSD plate competition assay, ruthenylated hTim-3-Fc binding to coated galectin-9-biotin; competitor galectin-9
T3 construct: Bought protein; Supplier is not repeated for the CEACAM1 assay; also called hTIM-3-Fc; hTIM-3-Fc Biotin; not shown: Fc part of the bought fusion protein
T3 sequence: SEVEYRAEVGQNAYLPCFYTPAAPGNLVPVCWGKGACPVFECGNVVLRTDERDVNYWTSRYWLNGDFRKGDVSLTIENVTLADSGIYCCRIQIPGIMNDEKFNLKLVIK

[4] = molecular target: T3, human Tim-3-Fc (R&D Systems); experiment: ELISA, human Tim-3-Fc coated, anti-human IgG F(ab')2-HRP detection
[5] = molecular target: T3, human Tim-3-Fc (R&D Systems); experiment: flow cytometry, blocking of biotinylated hTIM-3-Fc binding to phosphatidylserine on camptothecin-treated DO11.10 cells
hTim-3-IgV-FLAG = molecular target: T4, hTim-3-IgV-FLAG (human, UniProt Q8TDQ0 22-130, density indicating glycosylation at Asn99); experiment: SPR Biacore T200, Fab captured, hTim-3-IgV-FLAG as analyte, HBS-EP, 25 C, 1:1 binding
T4 construct: Purified from 293HEK supernatant; also called hTim-3-FLAG; human Tim-3 IgV domain; not shown: FLAG tag
T4 sequence: T3 sequence

human PD-1 on CHO cells = human PD-1 on CHO cells (human, UniProt Q15116 25-288); experiment: flow cytometry, CHO cells with human PD-1 incubated with antibody 100 nM, then PD-L2-FITC; competitor PD-L2-FITC
human PD-1 on CHO cells, sequence (Q15116 25-288 limits assumed): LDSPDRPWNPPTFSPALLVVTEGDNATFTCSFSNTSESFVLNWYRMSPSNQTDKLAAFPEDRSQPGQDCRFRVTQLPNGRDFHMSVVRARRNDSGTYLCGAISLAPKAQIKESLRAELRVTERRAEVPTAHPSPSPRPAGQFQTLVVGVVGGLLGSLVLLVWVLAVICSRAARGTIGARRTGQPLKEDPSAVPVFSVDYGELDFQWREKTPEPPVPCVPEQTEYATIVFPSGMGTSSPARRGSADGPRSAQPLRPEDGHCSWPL

B1: Antibody A (anti-Tim-3 Antibody) (antibody, human IgG1, kappa, V domains shown)
VH: EVQLLESGGGLVQPGGSLRLSCAASGFTFSSYYMSWVRQAPGKGLEWVSAISGSGGSTYYADSVKGRFTISRDNSKNTLYLQMNSLRAEDTAVYYCARYARTAFDLWGQGTLVTVSS
VL: DIVMTQSPSSLSASVGDGVTITCQASQDIYNYLNWYQQKPGKAPKLLIYAASSLQSGVPSRFSGSGSGTDFTLTISSLQPEDFATYYCQQANSFPPTFGQGTKLEIKR
notes: Full IgG; also called anti-human Tim-3
EC50 [1]: 90 pM
Kd [2]: 398 pM
koff [2]: 0.000927 s⁻¹
kon [2]: 2.33e+06 M⁻¹ s⁻¹
IC50 [3]: 5600 pM
EC50 [4]: 20.7 pM
IC50 [5]: 320 pM

B2: Antibody A-Fab (Fab, V domains shown)
VH: B1 VH
VL: B1 VL
notes: Made by clipping Antibody A with immobilized papain; the Fc part was not present in the assay; also called Fab for Antibody A
Kd (hTim-3-IgV-FLAG): 7920 pM
koff (hTim-3-IgV-FLAG): 0.00286 s⁻¹
kon (hTim-3-IgV-FLAG): 362000 M⁻¹ s⁻¹

B3: Antibody D in IgG1 format (antibody, V domains shown)
VH: QVQLVQSGAEVKKPGSSVKVSCKASGGTFSSYAISWVRQAPGQGLEWMGLIIPMFDTAGYAQKFQGRVAITVDESTSTAYMELSSLRSEDTAVYYCARAEHSSTGTFDYWGQGTLVTVSS
VL: DIQMTQSPSSVSASVGDRVTITCRASQGISSWLAWYQQKPGKAPKLLISAASSLQSGVPSRFSGSGSGTDFTLTISSLQPEDFATYYCQQANHLPFTFGGGTKVEIK
notes: IgG1 format, expressed in yeast; also called Antibody D, in IgG1 format and expressed in yeast
MFI (PD-L2-FITC) in presence of the antibody (human PD-1 on CHO cells): 24700
